{
  "source": "patent US12391762B2",
  "about": "“Methods and compositions relating to GLP1R variants” (Twist Bioscience Corporation, priority 2020, dated 2025)",
  "molecules": {"B1": {"name": "GLP1R221-084: GLP1R-221 variant, optimized from GLP1R-3 (antibody, V domains shown)", "VH": "QVQLVESGGGVVQPGRSLRLSCAASGFAFSNYGMHWVRQAPGKGLEWVAVISSDENNKYYADSVKGRFTISRDNSKNTLYLQMNSLRAEDTAVYYCAKHMSMQEGAVTGEMQAAKEFIAWLVKGRVRADLVGDAFDVWGQGTLVTVSS", "VL": "QSVLTQPPSVSAAPGQKVTISCSGSSSNIADNYVSWYQQLPGTAPKLLIYENNRRPSGIPDRFSGSKSGTSATLGITGLQTGDEADYYCGTWDVSLSVGMFGGGTKLTVL"}, "B2": {"name": "GLP1R221-092: GLP1R-221 variant, optimized from GLP1R-3 (antibody, V domains shown)", "VH": "B1 VH with A28I, S30N, V50F, S53Y, D54G, E55G, N56S, M111G, A114V", "VL": "B1 VL with S25T, S26T, D31N, Y33F, E51D, R54K, S57P, V94T"}, "B3": {"name": "GLP1R221-034: GLP1R-221 variant, optimized from GLP1R-3 (antibody, V domains shown)", "VH": "B1 VH with A28P, S53H, E55R, N56S, M111G, A114V", "VL": "B1 VL with A30G, D31N, Y33P, N53D, R54N, G90A, V94R, S95G, V98T, M100V"}, "B4": {"name": "GLP1R221-065: GLP1R-221 variant, optimized from GLP1R-3 (antibody, V domains shown)", "VH": "B1 VH with A28T, S30N, G33A, S53Y, E55R, N56S, K58E, E110D, M111G", "VL": "B1 VL with S25T, S26T, D31N, Y33F, E51D, N52H, R54K, V94T, V98A, M100A"}, "B5": {"name": "GLP1R221-009: GLP1R-221 variant, optimized from GLP1R-3 (antibody, V domains shown)", "VH": "B1 VH with A28I, S53D, D54E, E55G, N56S, E110A, M111G", "VL": "B1 VL with A30G, D31N, N32Q, E51D, N52D, N53H, R54K, V94T, M100E"}, "B6": {"name": "GLP1R221-066: GLP1R-221 variant, optimized from GLP1R-3 (antibody, V domains shown)", "VH": "B1 VH with A28T, S30N, G33A, S53Y, E55R, N56S, K58E, M111G, A114I", "VL": "B1 VL with A30G, D31N, V34L, R54K, T91I, V94R, V98A, G99W, M100V"}, "B7": {"name": "GLP1R221-017: GLP1R-221 variant, optimized from GLP1R-3 (antibody, V domains shown)", "VH": "B1 VH with A28T, N31D, M34V, V50F, S53Y, N56S, M111Y", "VL": "QSVLTQPPSVSAAPGQKVTISCSGSSSNIGNTYVSWYQQLPGTAPKLLIYDDYKRPSGIPDRFSGSKSGTSATLGITGLQTGDEADYYCATWDATLNTGVFGGGTKLTVL"}, "B8": {"name": "GLP1R221-076: GLP1R-221 variant, optimized from GLP1R-3 (antibody, V domains shown)", "VH": "B1 VH with A28T, S30N, G33P, S53Y, N56T, M111G, R125I", "VL": "QSVLTQPPSVSAAPGQKVTISCSGTSSNIGNNDVSWYQQLPGTAPKLLIYENNKRHSGIPDRFSGSKSGTSATLGITGLQTGDEADYYCLTWDHSLTAYVFGGGTKLTVL"}, "B9": {"name": "GLP1R221-033: GLP1R-221 variant, optimized from GLP1R-3 (antibody, V domains shown)", "VH": "B1 VH with A28S, G33A, S53H, E55R, N56S, M111G, E116D", "VL": "B7 VL with T32E, D52N, Y53N, P56V, A94T, T95S, T98V"}, "B10": {"name": "GLP1R221-075: GLP1R-221 variant, optimized from GLP1R-3 (antibody, V domains shown)", "VH": "B1 VH with A28T, G33P, S53Y, N56T, M111G, R125I", "VL": "B8 VL with T25S, S26G, E51D, N53D, H56P, S57A, L90G, H94T, T97S, A98N"}, "B11": {"name": "GLP1R222-073: GLP1R-222 variant, optimized from GLP1R-3 (antibody, V domains shown)", "VH": "B1 VH with A28T, S30R, N31D, V50F, S52R, S53Y, N56I, M111G, K123G", "VL": "B7 VL with S26G, T32N, Y33D, D52N, Y53N, P56A, A90G, A94R, T95G, L96P"}, "B12": {"name": "GLP1R222-023: GLP1R-222 variant, optimized from GLP1R-3 (antibody, V domains shown)", "VH": "B1 VH with A28S, N31D, V50F, S53Y, E55A, M111W", "VL": "B7 VL with T32N, Y33D, D51E, D52N, Y53T, A90G, T95G, N97S"}, "B13": {"name": "GLP1R222-081: GLP1R-222 variant, optimized from GLP1R-3 (antibody, V domains shown)", "VH": "B1 VH with A28T, S30D, G33A, M34L, V50L, S53Y, E55A, N56G, M111G, R125F", "VL": "QSVLTQPPSVSAAPGQKVTISCSGSSSNIGSDYVSWYQQLPGTAPKLLIYDNNKRSSGIPDRFSGSKSGTSATLGITGLQTGDEADYYCGTWDESLRSWVFGGGTKLTVL"}, "B14": {"name": "GLP1R222-090: GLP1R-222 variant, optimized from GLP1R-3 (antibody, V domains shown)", "VH": "B1 VH with A28S, N31D, M34I, V50L, S53Y, D54E, E55G, N56S, M111K", "VL": "B1 VL with E51D, R54K, P56A, G90A, V94N, S95R, V98A, M100V"}, "B15": {"name": "GLP1R222-012: GLP1R-222 variant, optimized from GLP1R-3 (antibody, V domains shown)", "VH": "B1 VH with A28T, S30N, S53D, D54E, E55G, N56S, E110V, M111G", "VL": "B1 VL with A30G, D31N, Y33D, E51D, N52D, N53D, R54K, V94T, M100E"}, "B16": {"name": "GLP1R222-056: GLP1R-222 variant, optimized from GLP1R-3 (antibody, V domains shown)", "VH": "B1 VH with A28P, N31S, G33A, S53Y, E55R, N56S, E110Y, M111G, R125F", "VL": "B1 VL with A30G, D31S, V34I, E51D, N53D, R54K, S57A, V94T, M100E"}, "B17": {"name": "GLP1R222-052: GLP1R-222 variant, optimized from GLP1R-3 (antibody, V domains shown)", "VH": "B1 VH with A28T, S30N, G33P, S53Y, N56S, E110G, M111G", "VL": "B13 VL with S31K, D32R, Y33S, S56A, G90V, E94R, R97S, S98A, W99G"}, "B18": {"name": "GLP1R222-082: GLP1R-222 variant, optimized from GLP1R-3 (antibody, V domains shown)", "VH": "B1 VH with A28T, N31A, G33S, V50L, S53Y, E55A, N56T, M111F", "VL": "B13 VL with D32K, S56P, E94I, L96P, R97S, S98A"}, "B19": {"name": "GLP1R222-014: GLP1R-222 variant, optimized from GLP1R-3 (antibody, V domains shown)", "VH": "B1 VH with A49S, V50F, S53Y, N56S, S85N, M111W", "VL": "B8 VL with T25S, N32H, E51D, L90G, H94T, T97S, Y99G"}},
  "note": "Changes are numbered by the printed parent chain.",
  "data": [
    {"test_system": "CHO-parent cells", "assay": "Flow cytometry binding assay on CHO-parent cells (background binding)", "parameters": "species or system Chinese Hamster", "details": "Table 6C; GLP1R-221 variants", "method": "(§1) GLP-1R IgG clones were tested in a binding assay coupled to flow cytometry analysis as follows: FLAG-GLP-1R-GFP expressing CHO cells (CHO-GLP-1R) and CHO-parent cells were incubated with 100 nM IgG for 1 h on ice, washed three times and incubated with Alexa 647 conjugated goat-anti-human antibody (1:200) (Jackson ImmunoResearch Laboratories, 109-605-044) for 30 min on ice, followed by three washes, centrifuging to pellet the cells between each washing step. All incubations and washes were in buffer containing PBS+1% BSA. For titrations, IgG was serially diluted 1:3 starting from 100 nM down to 0.046 nM. Cells were analyzed by flow cytometry and hits (a hit is an IgG that specifically binds to CHO-GLP-1R) were identified by measuring the GFP signal against the Alexa 647 signal. Flow cytometry data of binding assays with 100 nM IgG are presented as dot plots. Analyses of binding assays with IgG titrations are presented as binding curves plotting IgG concentrations against MFI (mean fluorescence intensity).", "values": [
      {"molecule": "B1", "Median RL1-H of Parent Singlets": 207},
      {"molecule": "B2", "Median RL1-H of Parent Singlets": 326},
      {"molecule": "B3", "Median RL1-H of Parent Singlets": 314},
      {"molecule": "B4", "Median RL1-H of Parent Singlets": 298},
      {"molecule": "B5", "Median RL1-H of Parent Singlets": 197},
      {"molecule": "B6", "Median RL1-H of Parent Singlets": 240},
      {"molecule": "B7", "Median RL1-H of Parent Singlets": 162},
      {"molecule": "B8", "Median RL1-H of Parent Singlets": 316},
      {"molecule": "B9", "Median RL1-H of Parent Singlets": 236},
      {"molecule": "B10", "Median RL1-H of Parent Singlets": 206}
    ]},
    {"test_system": "CHO-parent cells", "assay": "Flow cytometry binding assay on CHO-parent cells (background binding)", "parameters": "species or system Chinese Hamster", "details": "Table 6D; GLP1R-222 variants", "method": "as §1", "values": [
      {"molecule": "B11", "Median RL1-H of Parent Singlets": 229},
      {"molecule": "B12", "Median RL1-H of Parent Singlets": 310},
      {"molecule": "B13", "Median RL1-H of Parent Singlets": 260},
      {"molecule": "B14", "Median RL1-H of Parent Singlets": 432},
      {"molecule": "B15", "Median RL1-H of Parent Singlets": 290.5},
      {"molecule": "B16", "Median RL1-H of Parent Singlets": 230},
      {"molecule": "B17", "Median RL1-H of Parent Singlets": 27565.5},
      {"molecule": "B18", "Median RL1-H of Parent Singlets": 315},
      {"molecule": "B19", "Median RL1-H of Parent Singlets": 299}
    ]},
    {"test_system": "CHO-parent cells", "assay": "Flow cytometry binding assay on CHO-parent cells (background binding)", "parameters": "species or system Chinese Hamster", "details": "Table 6E; IgG titration", "method": "as §1", "values": [
      {"molecule": "B1", "Bmax CHO Parent": 266.6},
      {"molecule": "B2", "Bmax CHO Parent": 291.2},
      {"molecule": "B3", "Bmax CHO Parent": 279.8},
      {"molecule": "B4", "Bmax CHO Parent": 261.9},
      {"molecule": "B5", "Bmax CHO Parent": 267.4},
      {"molecule": "B6", "Bmax CHO Parent": 112.1},
      {"molecule": "B7", "Bmax CHO Parent": 228.7},
      {"molecule": "B8", "Bmax CHO Parent": 183.2},
      {"molecule": "B9", "Bmax CHO Parent": 146},
      {"molecule": "B10", "Bmax CHO Parent": 234}
    ]},
    {"test_system": "CHO-parent cells", "assay": "Flow cytometry binding assay on CHO-parent cells (background binding)", "parameters": "species or system Chinese Hamster", "details": "Table 6F; IgG titration", "method": "as §1", "units": {"EC50": "nM"}, "values": [
      {"molecule": "B11", "Bmax CHO Parent": 228.4},
      {"molecule": "B12", "Bmax CHO Parent": 237.9, "EC50": 89.4},
      {"molecule": "B13", "Bmax CHO Parent": 243.4},
      {"molecule": "B14", "Bmax CHO Parent": 413.4},
      {"molecule": "B15", "Bmax CHO Parent": 340.6},
      {"molecule": "B16", "Bmax CHO Parent": 237.5},
      {"molecule": "B17", "Bmax CHO Parent": 47529},
      {"molecule": "B18", "Bmax CHO Parent": 305},
      {"molecule": "B19", "Bmax CHO Parent": 336.4}
    ]}
  ]
}
